This passage reports binding signal (% probe bound) results from article PMC2225407.

The first data set concerns the target MBP::FAX-1 (Caenorhabditis elegans) (UniProt G5EDJ0). The experiment in a line: EMSA. Particulars: EMSA: 1.5 ug MBP::FAX-1, 4 ng 32P ds oligo, BSA, 30 min pre-incubation + 30 min on ice, 8% native PAGE; binding buffer salt and pH not given.
Sequence of UniProt G5EDJ0 (G5EDJ0 whole entry): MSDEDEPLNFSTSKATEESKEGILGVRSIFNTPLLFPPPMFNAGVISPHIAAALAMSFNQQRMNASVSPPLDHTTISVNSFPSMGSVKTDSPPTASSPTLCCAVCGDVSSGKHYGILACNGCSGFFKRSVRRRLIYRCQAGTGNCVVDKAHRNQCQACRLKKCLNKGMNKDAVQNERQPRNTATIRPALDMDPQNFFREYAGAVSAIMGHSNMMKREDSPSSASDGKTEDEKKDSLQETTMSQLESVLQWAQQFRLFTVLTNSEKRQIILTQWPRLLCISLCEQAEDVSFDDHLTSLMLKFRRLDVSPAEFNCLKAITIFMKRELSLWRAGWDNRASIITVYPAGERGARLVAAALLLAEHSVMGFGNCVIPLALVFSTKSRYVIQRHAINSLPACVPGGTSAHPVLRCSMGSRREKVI
Turning to “AATTACCCTTTTAAAAGTCAAAATTTAACTTCCAA / TCGATTGGAAGTTAAATTTTGACTTTTAAAAGGGT [MON1]”, the binding signal (% probe bound) came to 2.8. Consider “AATTACCCTTTTAAATGTCAAATGTCAACTTCCAA / TCGATTGGAAGTTGACATTTGACATTTAAAAGGGT [DR1T]”, for which the binding signal (% probe bound) stood at 29.8. “AATTACCCTTTTAAACGTCAAACGTCAACTTCCAA / TCGATTGGAAGTTGACGTTTGACGTTTAAAAGGGT [DR1C]”: the binding signal (% probe bound) came out at 26.1. Same read-out and setting: for “AATTACCCTTTTAAAATTCAAAATTCAACTTCCAA / TCGATTGGAAGTTGAATTTTGAATTTTAAAAGGGT [DRNC]” the value was 0.4; for “AATTACCCTTTTAAAAGTCAAAAGTCAACTTCCAA / TCGATTGGAAGTTGACTTTTGACTTTTAAAAGGGT [DR1A]”, 53.3; for “AATTACCCTTTTAAAATTTAAAAGTCAACTTCCAA / TCGATTGGAAGTTGACTTTTAAATTTTAAAAGGGT [MON2]”, 4.5.

Regarding “AATTACCCTTTTAAAAGTCAAAATTCAACTTCCAA / TCGATTGGAAGTTGAATTTTGACTTTTAAAAGGGT [HRSW]”, the binding signal (% probe bound) turned out to be 11.7.

Consider “AATTACCCTTTTAAAATTCAAAAGTCAACTTCCAA / TCGATTGGAAGTTGACTTTTGAATTTTAAAAGGGT [HRWS]”, for which the binding signal (% probe bound) was 10.5.

Still in this data set, the particulars now being: supershift with anti-FAX-1 shown; EMSA: 1.5 ug MBP::FAX-1, 4 ng 32P ds oligo, BSA, 30 min pre-incubation + 30 min on ice, 8% native PAGE; binding buffer salt and pH not given.
Regarding “AATTACCCTTTTAAAGGTCAAAGGTCAACTTCCAA / TCGATTGGAAGTTGACCTTTGACCTTTAAAAGGGT [DR1G]”, the binding signal (% probe bound) worked out at 42.1.
